From article doi:10.1101/2022.05.11.491581 (bioRxiv, 2022)

B1: LARGE1 with its coiled-coil (+CC) domain (residues 29-756), soluble secreted form (domain or fragment, human, UniProt O95461 29-756, looked up)
chain: LFSGSFEDGKPVSLSPLESQAHSPRYTASSQRERESLEVRMREVEEENRALRRQLSLAQGRAPSHRRGNHSKTYSMEEGTGDSENLRAGIVAGNSSECGQQPVVEKCETIHVAIVCAGYNASRDVVTLVKSVLFHRRNPLHFHLIADSIAEQILATLFQTWMVPAVRVDFYNADELKSEVSWIPNKHYSGIYGLMKLVLTKTLPANLERVIVLDTDITFATDIAELWAVFHKFKGQQVLGLVENQSDWYLGNLWKNHRPWPALGRGYNTGVILLLLDKLRKMKWEQMWRLTAERELMGMLSTSLADQDIFNAVIKQNPFLVYQLPCFWNVQLSDHTRSEQCYRDVSDLKVIHWNSPKKLRVKNKHVEFFRNLYLTFLEYDGNLLRRELFGCPSEADVNSENLQKQLSELDEDDLCYEFRRERFTVHRTHLYFLHYEYEPAADSTDVTLVAQLSMDRLQMLEAICKHWEGPISLALYLSDAEAQQFLRYAQGSEVLMSRHNVGYHIVYKEGQFYPVNLLRNVAMKHISTPYMFLSDIDFLPMYGLYEYLRKSVIQLDLANTKKAMIVPAFETLRYRLSFPKSKAELLSMLDMGTLFTFRYHVWTKGHAPTNFAKWRTATTPYRVEWEADFEPYVVVRRDCPEYDRRFVGFGWNKVAHIMELDVQEYEFIVLPNAYMIHMPHAPSFDITKFRSNKQYRICLKTLKEEFQQDMSRRYGFAALKYLTAENNS

How the values were obtained:
[1] = target: LARGE1 without its CC domain (-CC), soluble secreted form (human) (UniProt O95461); assay: mass photometry
[2] = target: LARGE1 without its CC domain (-CC), soluble secreted form (human) (UniProt O95461); assay: cryo-EM structure
[3] = target: LARGE1 without its CC domain (-CC), soluble secreted form (human) (UniProt O95461); assay: crystal structure
mass photometry = target: the molecule itself; assay: mass photometry

Row | Molecule | stoichiometry N [1] | stoichiometry N [2] | stoichiometry N [3] | stoichiometry N (mass photometry)
1 | LARGE1 without its CC domain (-CC), soluble secreted form (from UniProt O95461 96-276) (domain or fragment) | 2 | 2 | 2 | 
2 | B1 |  |  |  | 2
